According to article doi:10.1101/2024.03.26.586731:
Blank lines part the entries; values can stand above or below the substance they belong to.

What was measured:
Assay in all cases: high-speed atomic force microscopy
IgG1-DNP-E430G (human) = target: IgG1-DNP-E430G (human)
IgG2-DNP-E430G (human) = target: IgG2-DNP-E430G (human)
IgG3-DNP-E430G (human) = target: IgG3-DNP-E430G (human)
IgG4-DNP-E430G (human) = target: IgG4-DNP-E430G (human)

- stoichiometry N (IgG1-DNP-E430G (human)): < 6
Substance: IgG1-DNP-E430G (antibody)

- stoichiometry N (IgG2-DNP-E430G (human)): < 6
Substance: IgG2-DNP-E430G (antibody)

- stoichiometry N (IgG3-DNP-E430G (human)): < 6
Substance: IgG3-DNP-E430G (antibody)

- stoichiometry N (IgG4-DNP-E430G (human)): < 6
Substance: IgG4-DNP-E430G (antibody)
